T1: Dopamine D1A D1A4 (Rattus norvegicus, UniProt P18901)
T1 chain: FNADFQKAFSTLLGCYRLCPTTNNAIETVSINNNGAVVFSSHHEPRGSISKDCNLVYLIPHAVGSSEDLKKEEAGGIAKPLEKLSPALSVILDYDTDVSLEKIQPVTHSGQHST

B1: snapin (protein)
chain: AAAGSAAVSGAGTPVAGPTGRDLFAEGLLEFLRPAVQQLDSHVHAVRESQVELREQIDNLATELCRINEDQKVALDLDPYVKKLLNARRRVVLVNNILQNAQERLRRLNHSVAKETARRRAMLDSGVYPPGSPSK
B2: otoferlin C2F (protein)
chain: DMPAPGTPLDISPRKPKKYELRVIVWNTDEVVLEDDDFFTGEKSSDIFVRGWLKGQQEDKQDTDVHYHSLTGEGNFNWRYLFPFDYLAAEEKIVMSKKESMFSWDETEYKIPARLTLQIWDADHFSADDFLGAIELDLNRFPRGAKTAKQCT

How the values were obtained:
Dopamine D1A D1A4 = molecular target: T1, Dopamine D1A D1A4; test: SPR
snapin = molecular target: B1; test: SPR

Row | Binder | Kd (Dopamine D1A D1A4) [nM] | Kd (snapin) [nM]
1 | B1 | 14.6 | 
2 | B2 |  | 23.4
